The nature of this series: protein stability index of a GFP-peptide fusion (GPS, HEK-293T) (PSI 1-6); higher = more stable.
Setting [1] is: treatment: DMSO, c terminus: a fixed tail appended.
The mark [2] stands for this setting: treatment: MLN4924 1 uM, 8 h, c terminus: a fixed tail appended.
Setting [3] is: treatment: DMSO, c terminus: native.
The mark [4] stands for this setting: treatment: MLN4924 1 uM, 8 h, c terminus: native.

± gives the standard deviation.
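Note: 24-mer peptide tiles fused after GFP, lentivirally expressed, FACS-sorted into six equal bins by GFP/DsRed ratio, decoded by Illumina sequencing, PSI is the read-weighted mean bin number.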

With ILKRRYYRQHCTLELGSYIKDLSV [CTDNEP1], the protein stability index runs as follows: under setting [1], 2.46 ± 0.56; under setting [2], 2.25 ± 0.66.

With ILTEETEVKGTLEGDVCGVEPPGP [PBXIP1], the protein stability index under setting [1] was 5.14 ± 0.39 and the protein stability index under setting [2] stood at 5.42 ± 0.24. The matching figures for IMLLDKNVPNPRIKLIDFGIAHKI [DAPK3]: 2.89 ± 0.73 and 2.52 ± 0.46. On to INQEELRALEEVEMKLQKNFLTQR [C10orf62], for which the protein stability index by setting is: under setting [1], 3.66 ± 0.39; under setting [2], 3.83 ± 0.34. Turning to IPQLEDVSNFLKERTGFSIRPVAG [TPH1], the protein stability index turned out to be 2.98 ± 0.34 under setting [1] and 2.98 ± 0.14 under setting [2]. As to IPRGFPTIDMGPQLKVVERTRTAT [PTPRD], the protein stability index was determined as 3.92 ± 0.24 under setting [1] and 3.68 ± 0.37 under setting [2]. On the same counts, the results for IPVFRLARRRKKILFYCHFPDLLL [ALG2] are 2.88 ± 0.57 and 2.44 ± 0.29. The matching figures for IRHQRIHTGEKPYTCHECGDSFSH [ZNF263]: 2.62 ± 0.4 and 2.7 ± 0.36.

Turning to IRLYGLQAGRLLWEQELYSQLVYS [WAS], the protein stability index runs as follows: under setting [1], 3.11 ± 0.55; under setting [2], 2.7 ± 0.38. Turning to ISAEGFTDIDIDTLCAVLERDTLS [BTBD1], the protein stability index runs as follows: under setting [1], 2.48 ± 0.3; under setting [2], 2.63 ± 0.38. As to ISESMAACTRSLLGDPPPLLTLPR [HDAC6], the protein stability index is 2.98 ± 0.14 under setting [1] and 3.29 ± 0.41 under setting [2].

For ISEYEKSLQFDEKCLSIMLAEWEA [RPAIN], the protein stability index stood at 2.34 ± 0.3 under setting [1] and 2.87 ± 0.33 under setting [2]. The matching figures for ISNVCEEYIVKKLSRQEFLGMVGL [SLC35F2]: 2.32 ± 0.17 and 2.35 ± 0.13. Regarding ITYPMLFKLTNKNSDRMTHCGVLE [UFD1], the protein stability index by setting is: under setting [1], 2.46 ± 0.17; under setting [2], 2.43 ± 0.23. Regarding IVEDPQTKCEYMLNSMPKRLCLVC [ESRRG], the protein stability index amounted to 2.39 ± 0.46 under setting [1] and 2.05 ± 0.24 under setting [2]. IYCGAGVQKDHENYMKILLKVGGI [PCMTD1]: the protein stability index was 2.26 ± 0.17 under setting [1] and 2.25 ± 0.44 under setting [2]. The matching figures for IYGMEGIPEKDMDERRRLLEQKTQ [ZNF207]: 4.6 ± 0.17 and 4.69 ± 0.15. In the case of IYRKYRKLIESELSYFVIVYSVM [FBXO39], the protein stability index under setting [3] was determined as 2.87 ± 0.62 and the protein stability index under setting [4] stood at 2.89 ± 0.44. In the case of KAAVSHWQQQSYLDSGIHSGATTT [CTNNB1], the protein stability index is, setting by setting: under setting [1], 3.69 ± 0.2; under setting [2], 3.78 ± 0.17. On to KATAAFSNVGTAISKKFGDMSYSI [TPD52L1], for which the protein stability index turned out to be 2.72 ± 0.14 under setting [1] and 2.72 ± 0.13 under setting [2]. As to KCLYYLYATLDLNAVKYVSNIKFC [PDS5B], the protein stability index runs as follows: under setting [1], 3.06 ± 0.41; under setting [2], 2.75 ± 0.78. On the same counts, the results for KDARQWFAELSVDMEKILEIIRVI [CCNC] are 2.24 ± 0.38 and 2.15 ± 0.35. For KEDAKGKSEEELAECFRIFDRNAD [TNNC2], the protein stability index runs as follows: under setting [1], 5.54 ± 0.24; under setting [2], 5.71 ± 0.12.

In the case of KEIAKNLIQPINHTTLQCLAARVI [FEM1C], the protein stability index is, setting by setting: under setting [1], 2.33 ± 0.5; under setting [2], 2.33 ± 0.47. Consider KESGQEGVDSMAEEGTSDSNTGSE [SMARCE1], for which the protein stability index under setting [1] was found to be 5.01 ± 0.61. On to KFADNKWSVTGKAEPAMPGRLYVH [TBX5], for which the protein stability index is, setting by setting: under setting [1], 2.53 ± 0.094; under setting [2], 2.61 ± 0.27.

In the case of KFLAFSGPHPKSKIENGYPLHAPE [CDC14A], the protein stability index by setting is: under setting [1], 3.23 ± 0.15; under setting [2], 3.16 ± 0.29. Turning to KFLMARKFDVLRAIELFHSYRETR [PTPN9], the protein stability index under setting [1] came out at 2.29 ± 0.54 and the protein stability index under setting [2] was found to be 2.15 ± 0.15. Turning to KFSQNSHLIKHRRTHTGEQPYTCS [ZNF75A], the protein stability index reads like this: under setting [1], 2.93 ± 0.14; under setting [2], 3 ± 0.34. The matching figures for KGKTAVDTVFRFDPRYNKWMQVAS [KLHL13]: 2.4 ± 0.3 and 2.94 ± 0.5. On the same counts, the results for KGLNARMMRGLSYSLTTSSTHKSS [RAB40A] are 3.39 ± 0.28 and 3.52 ± 0.32. Regarding KGPGAPQYPAGTQGEQLEVPERLL [SPSB2], the protein stability index under setting [1] stood at 4.93 ± 0.15 and the protein stability index under setting [2] is 4.72 ± 0.26.

For the sequence KIAQNLDFVNLMAYDFHGSWEKVT [CHIT1], the protein stability index runs as follows: under setting [1], 2.42 ± 0.35; under setting [2], 2.18 ± 0.39. The matching figures for KKAFLNQAQIELRLLELMNQHDTE [DYRK1B]: 3.05 ± 0.3 and 3.35 ± 0.14. As to KKELEENFEKLRLSLQDQVDTLTF [MTUS2], the protein stability index is, setting by setting: under setting [1], 3.94 ± 0.64; under setting [2], 3.8 ± 0.42. For KKIFKSHLKSSRNSTSVKKKSSRN [P2RY14], the protein stability index came out at 3.87 ± 0.32 under setting [1] and 4.22 ± 0.41 under setting [2]. For KKVSEGPPLRLWRSVIEVPAVPEE [DLC1], the protein stability index under setting [1] worked out at 3.37 ± 0.42 and the protein stability index under setting [2] was 3.91 ± 0.46. As to KKVSKAAILARIKRTGDGNYKSG [SCD], the protein stability index is, setting by setting: under setting [3], 2.88 ± 1.2; under setting [4], 3.28 ± 0.21. As for KLAVFMWLMTYVGAVFNGITLLIL [RTN3], the protein stability index was 2.97 ± 0.23 under setting [1] and 3.21 ± 0.39 under setting [2]. Regarding KLDFKEKAQAKVGSLDNAHHVPGG [MAP2], the protein stability index stood at 4.73 ± 0.2 under setting [1] and 4.7 ± 0.16 under setting [2]. With KLMKNIRFPLMTPQELINYVQTVD [KLHL13], the protein stability index came to 2.87 ± 0.18 under setting [1] and 2.82 ± 0.19 under setting [2]. For KLSPLRLSVSNNQEPDFIDDIEEK [KMT2E], the protein stability index reads like this: under setting [1], 4.9 ± 0.24; under setting [2], 5.06 ± 0.12. The matching figures for KLVDAIVSGDTSKLMKILQPQDVD [RIPK4]: 2.51 ± 0.31 and 2.38 ± 0.64.

As to KMETMYPFIVTLEGNALQGPILQK [ZNF449], the protein stability index stood at 2.53 ± 0.24 under setting [1] and 2.48 ± 0.33 under setting [2]. In the case of KMVSAEISENRKRQWPTKSQTDRG [SDE2], the protein stability index runs as follows: under setting [1], 4.52 ± 0.069; under setting [2], 4.41 ± 0.2.

With KNNDLVVAVNGESVETLDHDSVVE [PDZK1], the protein stability index reads like this: under setting [1], 5.37 ± 0.27; under setting [2], 5.34 ± 0.14. On to KQDSYEQGDSSQQSLKGHLRNNFQ [ZC2HC1C], for which the protein stability index was found to be 4.69 ± 0.24 under setting [1] and 4.84 ± 0.11 under setting [2].

As for KQDVLGPSTTPPAHSSSNTIRSGI [SASS6], the protein stability index runs as follows: under setting [1], 4.66 ± 0.34; under setting [2], 4.63 ± 0.22. For KQESTRPEKKSDQPMCEEHEEERI [TRIM55], the protein stability index was 5.73 ± 0.12 under setting [1] and 5.48 ± 0.26 under setting [2]. As for KQLISQTKKKQWCYNCEEEAMYHC [ZMYND11], the protein stability index stood at 3.1 ± 0.17 under setting [1] and 3.22 ± 0.34 under setting [2]. Turning to KQLLDSKIGFEIGIENEEDTSKQK [ZNF449], the protein stability index is 5.3 ± 0.27 under setting [1] and 5.26 ± 0.3 under setting [2]. Take KQNEKLNNQEEETEFKELDGLREA [CCDC89]: the protein stability index reads like this: under setting [1], 5.51 ± 0.28; under setting [2], 5.54 ± 0.3. As for KQPDLTMVRKIGCYAAMKKKIYAM [GAN], the protein stability index runs as follows: under setting [1], 2.28 ± 0.45; under setting [2], 2.21 ± 0.14. Take KQYDQQFPDGDDEFDSPHEDIVFE [STX11]: the protein stability index amounted to 5.18 ± 0.14 under setting [1] and 5.11 ± 0.2 under setting [2]. Regarding KQYVLLSILLCLLASGLVVFFLFP [TMEM106C], the protein stability index under setting [1] worked out at 2.43 ± 0.28 and the protein stability index under setting [2] amounted to 2.56 ± 0.44. Regarding KRCIVILREIPETTPIEEVKGLFK [LARP4], the protein stability index runs as follows: under setting [1], 2.23 ± 0.46; under setting [2], 1.93 ± 0.47.

As to KRKTFNKVLGHVNNILISAVLPTA [GDAP1], the protein stability index reads like this: under setting [1], 2.49 ± 0.14; under setting [2], 2.42 ± 0.076. Take KRTAQAIEPYITNFFNQVLMLGKT [PDS5B]: the protein stability index by setting is: under setting [1], 1.95 ± 0.24; under setting [2], 2.29 ± 0.085. Turning to KSKHAPRGTHLWEFIRDILIHPEL [ELF3], the protein stability index reads like this: under setting [1], 2.6 ± 0.75; under setting [2], 2.26 ± 0.36. As for KSSILTRAGEQRKRSQSMKSYPSS [CLCN6], the protein stability index came out at 4.46 ± 0.25 under setting [1] and 4.6 ± 0.18 under setting [2]. With LALGPGESLPHRLSCLGQQQQEPP [PLAGL1], the protein stability index runs as follows: under setting [1], 4.145 ± 0.038; under setting [2], 4.23 ± 0.15. In the case of LALKLPDGSYALNGEYTLMPSPTD [ADAMTS4], the protein stability index by setting is: under setting [1], 2.35 ± 0.15; under setting [2], 2.41 ± 0.28. For LAQQLCTALLFLATPELSIIHCDL [DYRK1B], the protein stability index came out at 3.04 ± 0.42 under setting [1] and 3.23 ± 0.42 under setting [2]. Take LASLQDGAAESPYGHPAGIDYKTT [RAB40B]: the protein stability index by setting is: under setting [1], 4.4 ± 0.31; under setting [2], 4.39 ± 0.15. For the sequence LATFSSDWEIQEDSRLMCSSVQKA [CCDC3], the protein stability index under setting [1] was found to be 4 ± 0.44 and the protein stability index under setting [2] amounted to 3.9 ± 0.29. On the same counts, the results for LCGENFSHRSNLIRHQRIHTGEKP [ZNF263] are 3.91 ± 0.17 and 3.72 ± 0.22. With LCSFLLLLLLQVSSSYAGQFRVIG [MOG], the protein stability index reads like this: under setting [1], 3.39 ± 0.38; under setting [2], 3.29 ± 0.29. Take LCSRQDLYPALKGVNTVFHCASPP [NSDHL]: the protein stability index worked out at 2.66 ± 0.32 under setting [1] and 2.79 ± 0.25 under setting [2]. LDFCDFTAEMARVLTDSNHVPLQR [FBXO33] returned a protein stability index under setting [1] of 3.07 ± 0.46 and a protein stability index under setting [2] of 3.26 ± 0.34. The matching figures for LDFKDLLESEDWEEDNWDPELMEH [TEX19]: 4.86 ± 0.091 and 4.94 ± 0.26. LDGAGLMGFVPHNGSLYGQASSER [ADAMTSL2]: the protein stability index is, setting by setting: under setting [1], 4.32 ± 0.67; under setting [2], 3.58 ± 0.95. Consider LDGKKKGVEPSPSPIKPGDIKRGI [UFD1], for which the protein stability index was found to be 4.92 ± 0.24 under setting [1] and 4.92 ± 0.25 under setting [2].
